Target: Cystic fibrosis transmembrane conductance regulator (CFTR), wild type, transiently expressed in HEK293 cells (UniProt P13569 1-1480)
Experiment: co-IP

Chain of Cystic fibrosis transmembrane conductance regulator (CFTR), wild type, transiently expressed in HEK293 cells (P13569 whole entry): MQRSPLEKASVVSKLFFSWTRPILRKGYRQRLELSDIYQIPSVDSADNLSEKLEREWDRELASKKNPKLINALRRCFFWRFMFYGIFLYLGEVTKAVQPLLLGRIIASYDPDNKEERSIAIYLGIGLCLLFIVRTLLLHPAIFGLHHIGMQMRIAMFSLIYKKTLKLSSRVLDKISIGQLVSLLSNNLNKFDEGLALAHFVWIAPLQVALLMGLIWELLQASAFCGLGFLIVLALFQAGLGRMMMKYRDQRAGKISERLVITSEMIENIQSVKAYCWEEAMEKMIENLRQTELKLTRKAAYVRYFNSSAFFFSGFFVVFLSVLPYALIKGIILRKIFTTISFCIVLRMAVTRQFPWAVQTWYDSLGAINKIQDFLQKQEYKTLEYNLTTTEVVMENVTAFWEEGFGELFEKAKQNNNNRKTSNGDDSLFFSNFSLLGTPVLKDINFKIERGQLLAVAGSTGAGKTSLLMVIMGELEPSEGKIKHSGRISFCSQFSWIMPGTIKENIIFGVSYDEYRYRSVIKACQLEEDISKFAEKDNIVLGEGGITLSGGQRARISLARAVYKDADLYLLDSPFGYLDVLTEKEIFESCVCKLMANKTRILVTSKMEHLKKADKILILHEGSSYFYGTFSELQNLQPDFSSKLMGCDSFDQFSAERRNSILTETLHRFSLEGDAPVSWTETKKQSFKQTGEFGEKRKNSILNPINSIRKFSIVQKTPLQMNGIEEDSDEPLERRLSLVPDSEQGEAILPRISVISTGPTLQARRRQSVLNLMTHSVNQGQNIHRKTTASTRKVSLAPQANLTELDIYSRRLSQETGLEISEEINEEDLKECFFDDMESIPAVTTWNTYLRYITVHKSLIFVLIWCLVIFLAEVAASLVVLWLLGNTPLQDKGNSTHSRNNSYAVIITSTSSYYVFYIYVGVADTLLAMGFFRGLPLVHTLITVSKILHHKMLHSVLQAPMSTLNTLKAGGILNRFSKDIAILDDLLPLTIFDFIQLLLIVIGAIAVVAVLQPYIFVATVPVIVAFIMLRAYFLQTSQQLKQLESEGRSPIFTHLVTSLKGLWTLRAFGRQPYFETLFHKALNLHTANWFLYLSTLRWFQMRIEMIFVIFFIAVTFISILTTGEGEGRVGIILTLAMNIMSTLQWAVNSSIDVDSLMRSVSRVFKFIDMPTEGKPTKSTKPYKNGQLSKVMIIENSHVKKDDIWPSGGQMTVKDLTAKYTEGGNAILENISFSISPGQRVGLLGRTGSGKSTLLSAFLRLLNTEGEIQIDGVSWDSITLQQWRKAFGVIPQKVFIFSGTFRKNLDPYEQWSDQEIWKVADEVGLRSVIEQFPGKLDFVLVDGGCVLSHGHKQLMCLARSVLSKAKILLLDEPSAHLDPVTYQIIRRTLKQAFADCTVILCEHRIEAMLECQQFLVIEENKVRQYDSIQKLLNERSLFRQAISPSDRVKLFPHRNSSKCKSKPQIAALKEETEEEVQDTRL

B1: 14-3-3ε, endogenous in HEK293 cells (natural protein, human (endogenous in HEK293), UniProt P62258 1-255, looked up)
chain: MDDREDLVYQAKLAEQAERYDEMVESMKKVAGMDVELTVEERNLLSVAYKNVIGARRASWRIISSIEQKEENKGGEDKLKMIREYRQMVETELKLICCDILDVLDKHLIPAANTGESKVFYYKMKGDYHRYLAEFATGNDRKEAAENSLVAYKAASDIAMTELPPTHPIRLGLALNFSVFYYEILNSPDRACRLAKAAFDDAIAELDTLSEESYKDSTLIMQLLRDNLTLWTSDMQGDGEEQNKEALQDVEDENQ
fold increase of the co-precipitate with forskolin against basal: 3.1 fold
